This assay addresses FAP (human, UniProt Q12884). The experiment in a line: FACS, HT1080 FAP+ cells. In general terms: Flow cytometry measures light scatter and fluorescence of single cells or particles in a stream.

Chain of FAP (Q12884 26-760): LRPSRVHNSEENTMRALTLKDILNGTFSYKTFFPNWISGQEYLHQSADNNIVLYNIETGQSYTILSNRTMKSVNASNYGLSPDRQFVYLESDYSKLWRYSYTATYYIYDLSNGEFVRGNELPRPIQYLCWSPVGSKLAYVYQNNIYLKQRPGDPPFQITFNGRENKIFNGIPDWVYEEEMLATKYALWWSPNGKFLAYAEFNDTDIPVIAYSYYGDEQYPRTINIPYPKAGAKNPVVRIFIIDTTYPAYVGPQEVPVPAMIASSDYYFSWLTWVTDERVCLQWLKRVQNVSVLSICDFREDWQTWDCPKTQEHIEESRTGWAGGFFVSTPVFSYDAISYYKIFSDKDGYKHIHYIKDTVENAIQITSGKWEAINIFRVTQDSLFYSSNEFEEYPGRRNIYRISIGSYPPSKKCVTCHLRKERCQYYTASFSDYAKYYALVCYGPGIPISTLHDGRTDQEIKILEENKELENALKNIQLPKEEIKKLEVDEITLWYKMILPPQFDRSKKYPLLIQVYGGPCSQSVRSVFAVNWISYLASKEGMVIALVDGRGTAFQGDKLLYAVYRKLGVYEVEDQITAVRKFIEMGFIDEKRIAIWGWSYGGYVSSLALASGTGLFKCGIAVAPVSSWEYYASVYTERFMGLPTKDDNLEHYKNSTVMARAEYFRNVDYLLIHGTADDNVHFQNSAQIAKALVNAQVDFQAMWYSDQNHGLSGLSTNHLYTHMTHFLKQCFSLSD

B1: Db anti-FAP-Glyco-scTRAIL3-FAVSGAA (antibody)
chain: MDWTWRVFCLLAVAPGAHSLEASDYKDDDDKGTGQVQLVQSGAEVKKPGASVKVSCKASGYTFTENIIHWVRQAPGQGLEWMGWFHPGSGSIKYNEKFKDRVTMTADTSTSTVYMELSSLRSEDTAVYYCARHGGTGRGAMDYWGQGTLVTVSSGGGGSDIQMTQSPSSLSASVGDRVTITCRASKSVSTSAYSYMHWYQQKPGKAPKLLIYLASNLESGVPSRFSGSGSGTDFTLTISSLQPEDFATYYCQHSRELPYTFGQGTKLEIKRAAAGNGTSNGTSEFGGAAAHITGTRGRSNTLSSPNSKNEKALGRKINSWESSRSGHSFLSNLHLRNGELVIHEKGFYYIYSQTYFRFQEEIKENTKNDKQMVQYIYKYTSYPDPILLMKSARNSCWSKDAEYGLYSIYQGGIFELKENDRIFVSVTNEHLIDMDHEASFFGAFAVSGAAAHITGTRGRSNTLSSPNSKNEKALGRKINSWESSRSGHSFLSNLHLRNGELVIHEKGFYYIYSQTYFRFQEEIKENTKNDKQMVQYIYKYTSYPDPILLMKSARNSCWSKDAEYGLYSIYQGGIFELKENDRIFVSVTNEHLIDMDHEASFFGAFAVSGAAAHITGTRGRSNTLSSPNSKNEKALGRKINSWESSRSGHSFLSNLHLRNGELVIHEKGFYYIYSQTYFRFQEEIKENTKNDKQMVQYIYKYTSYPDPILLMKSARNSCWSKDAEYGLYSIYQGGIFELKENDRIFVSVTNEHLIDMDHEASFFGAFAVS
For the molecule B1, the half-maximal effective concentration (EC50) (as a rule, the concentration that produces a half-maximal response) came to 14 nM.

The values above are taken from US10428149 (dated 2019).
